From article PMC11638003, “Plant phytochrome interactions decode light and temperature signals” (The Plant Cell, 2024)
No end group written: not given here.

Tests used:
Conditions in all cases: both partners purified
[1] = molecular target: T1, Arabidopsis thaliana phytochrome B, N-terminal fragment encompassing the N-terminal extension (NTE) and the … (Arabidopsis thaliana, UniProt P14713 1-651, phycocyanobilin chromophore, covalently bound); assay: FRET or BRET; as a5 (association and dissociation kinetics after a red-light pulse) at several temperatures up to 30 °C; values told for 30 °C or for 30 °C against 15 °C
T1 construct: Phytochrome B, Arabidopsis thaliana, GenBank CAA35222.1; N-terminal fragment with the NTE and the PCM (nPAS-GAF-PHY), lacking PAS1, PAS2 and the HKRD; source: E. coli LOBSTR, purified (Co2+-NTA IMAC, anion exchange); plasmid also encodes Synechocystis sp. heme oxygenase 1 and PcyA
T1 sequence (looked up): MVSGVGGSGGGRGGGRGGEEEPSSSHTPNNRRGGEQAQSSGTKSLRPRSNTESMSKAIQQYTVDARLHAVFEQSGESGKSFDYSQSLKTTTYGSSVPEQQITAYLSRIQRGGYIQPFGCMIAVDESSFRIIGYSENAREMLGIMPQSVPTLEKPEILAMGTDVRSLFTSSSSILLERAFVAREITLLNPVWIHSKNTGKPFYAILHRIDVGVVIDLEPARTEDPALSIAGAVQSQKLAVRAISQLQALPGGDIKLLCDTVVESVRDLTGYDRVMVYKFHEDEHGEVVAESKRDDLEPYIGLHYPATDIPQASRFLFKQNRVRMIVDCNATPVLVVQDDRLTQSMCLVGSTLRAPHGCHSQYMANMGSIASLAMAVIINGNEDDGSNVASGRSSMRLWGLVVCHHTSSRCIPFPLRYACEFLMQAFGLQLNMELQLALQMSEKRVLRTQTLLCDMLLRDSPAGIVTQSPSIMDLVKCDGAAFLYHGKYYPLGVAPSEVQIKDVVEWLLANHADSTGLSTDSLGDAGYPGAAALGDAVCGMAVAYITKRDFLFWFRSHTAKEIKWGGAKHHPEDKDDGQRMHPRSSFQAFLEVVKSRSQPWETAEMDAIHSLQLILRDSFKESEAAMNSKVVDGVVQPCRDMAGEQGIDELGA

[2] = molecular target: T1, Arabidopsis thaliana phytochrome B, …; assay: FRET or BRET; equilibrium titration: 20 nM P6A-mScarlet-I with 0 to 2,000 nM AtPhyB PCM at 15 °C after red light (658 nm); 50 mM Tris/HCl pH 8.0, 20 mM NaCl, 100 μg/mL BSA; single-site binding isotherm
[3] = molecular target: T2, Arabidopsis thaliana phytochrome B residues 1 to 982, AtPhyB (1-982) (Arabidopsis thaliana, UniProt P14713 1-982, phycocyanobilin chromophore, covalently bound); assay: FRET or BRET; association kinetics at 15 °C after a 0.5-s pulse of red light (658 nm, 69 mW cm^-2, optical shutter); 20 nM PIF-mScarlet-I variant with 500 to 2,000 nM AtPhyB PCM, or 30 nM P6A-mScarlet-I with 750 to 2,500 nM AtPhyB (1-982); 50 mM Tris/HCl pH 8.0, 20 mM NaCl; pseudo-first-order, linear fit of koFR against the AtPhyB concentration; kaFR corrected for the Pfr fraction; Kd calculated from kdFR and kaFR …
T2 construct: the oligomeric state is not measured directly here; also called AtPhyB982; source: E. coli LOBSTR, purified (Co2+-NTA IMAC, anion exchange); plasmid also encodes Synechocystis sp. heme oxygenase 1 and PcyA
T2 sequence (looked up): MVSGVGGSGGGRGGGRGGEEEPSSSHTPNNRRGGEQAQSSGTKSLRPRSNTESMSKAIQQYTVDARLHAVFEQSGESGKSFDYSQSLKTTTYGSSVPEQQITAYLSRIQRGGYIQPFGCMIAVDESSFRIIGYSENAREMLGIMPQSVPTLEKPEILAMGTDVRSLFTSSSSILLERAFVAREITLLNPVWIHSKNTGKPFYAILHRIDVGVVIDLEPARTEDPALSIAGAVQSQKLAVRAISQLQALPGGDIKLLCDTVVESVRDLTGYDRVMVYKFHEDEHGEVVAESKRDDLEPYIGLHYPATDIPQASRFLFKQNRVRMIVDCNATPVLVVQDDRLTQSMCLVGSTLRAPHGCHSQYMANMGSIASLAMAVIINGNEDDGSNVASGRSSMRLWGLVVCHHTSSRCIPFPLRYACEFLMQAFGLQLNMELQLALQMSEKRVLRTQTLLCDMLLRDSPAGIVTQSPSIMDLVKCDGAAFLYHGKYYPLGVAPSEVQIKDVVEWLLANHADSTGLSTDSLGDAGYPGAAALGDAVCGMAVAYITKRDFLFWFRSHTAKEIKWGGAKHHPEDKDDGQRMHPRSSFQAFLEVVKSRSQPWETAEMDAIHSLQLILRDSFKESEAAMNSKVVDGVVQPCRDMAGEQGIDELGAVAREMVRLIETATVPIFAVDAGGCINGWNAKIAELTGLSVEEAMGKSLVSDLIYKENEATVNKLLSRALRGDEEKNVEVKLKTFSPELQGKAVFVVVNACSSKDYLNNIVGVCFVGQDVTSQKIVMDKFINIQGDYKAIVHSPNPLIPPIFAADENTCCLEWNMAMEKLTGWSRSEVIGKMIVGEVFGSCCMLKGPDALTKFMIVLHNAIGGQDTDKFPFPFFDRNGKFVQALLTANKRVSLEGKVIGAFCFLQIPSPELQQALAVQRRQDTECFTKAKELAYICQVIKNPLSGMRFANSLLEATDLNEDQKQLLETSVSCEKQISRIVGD

[4] = molecular target: T1, Arabidopsis thaliana phytochrome B, …; assay: as above
[5] = molecular target: T2, Arabidopsis thaliana phytochrome B …; assay: as above; remark: listed apart in the source

Kd [1]: ~900 nM
Kd [2]: 130 ± 80 nM
Kd [3]: 1400 nM
Kd [4]: 183 ± 48 nM
koff [4]: 0.11 s⁻¹
kon [4]: 610000 M⁻¹ s⁻¹
Kd [5]: 1050 ± 240 nM
koff [5]: 0.095 s⁻¹
kon [5]: 90000 M⁻¹ s⁻¹
B1: P6A-mScarlet-I (Arabidopsis PIF6 residues 14 to 53, APB.A portion, fused to mScarlet-I) (domain or fragment, Arabidopsis thaliana, UniProt Q8L5W7 14-53, looked up)
chain: DQEYMELVFENGQILAKGQRSNVSLHNQRTKSIMDLYEAE-{mScarlet‑I}
notes: mScarlet-I: GenBank APD76536; source: E. coli LOBSTR, purified (IMAC, SENP2 cleavage, second IMAC, optionally anion exchange); not shown: His6-SUMO, N-terminal, cleaved; mScarlet-I, C-terminal, kept
